Experimental data from patent US20170275344A1, “POLYPEPTIDES AND USES THEREOF AS A DRUG FOR TREATMENT OF AUTOIMMUNE DISORDERS” (Compugen Ltd., priority 2014, published 2017).

Legend:
NOD mice = test: Type 1 diabetes incidence in NOD mice (blood glucose monitoring); type: in vivo, mouse; settings: for mice that developed T1D: 100 ug/dose
Method: The effect of C1ORF32 ECD-Fc treatment on modulation of disease incidence was tested in NOD mice, which spontaneously develop a T1D disease. In NOD mice, autoreactive CD4+ can be observed within the β-islets as early as 2 weeks of age (Yang et al., Immunity 1996 February; 4(2):189-94), and by 10 weeks of age, when the treatment with C1ORF32 ECD-Fc (SEQ ID NO: 42) began in the present experiments, NOD mice develop peri-insulitis and β-cell loss (Jimeno et al., Immunology and Cell Biology. (2010) 88, 734-745).
Materials: C1ORF ECD-Fc (SEQ ID NO:42) was used in these studies, as described below. Control Ig was mouse IgG2a from BioXcell (Cat# BE0085). NOD mice were purchased from Jackson labs, and blood glucose was measured via sampling a small drop of blood from the tail vein.
Methods: Six week old NOD mice were purchased from Jackson labs. At 10 weeks of age, mice were split into groups and treated with either vehicle (PBS) Control Ig or C1ORF ECD-Fc (SEQ ID NO:42) as detailed below. Treatment was given via IP injections 3×/wk/2 wks. Blood glucose levels were monitored weekly from 8 weeks of age until the mice reached […] of age as detailed below. Mice were considered diabetic upon having two consecutive blood glucose readings of >250 mg/dL. Diabetic mice were sacrificed on the day of the second high glucose level reading. Blood glucose levels were obtained from the tail vein, and the level of blood glucose measured via use of a OneTouch. UltraSmart. Blood Glocuse Monitoring System (OneTouch; Johnson & Johnson; New Brunswick, N.J.) in a blinded manner. This study was carried out 3 times; For study 3 proteins were provided coded.
Treatment groups (n=5 mice/group): 1. Control Ig (mouse IgG2a), 100 ug/dose 2. C1ORF ECD-Fc (SEQ ID NO:42), 100 ug/dose.
Treatment groups (n=14-15): 1. Control Ig (mouse IgG2a; BioXcell) (100 ug/dose) 2. C1ORF ECD-Fc (SEQ ID NO:42) (100 ug/dose)

[1] = test system: Female C57BL/6 recipient mice (CD45.2+); test: HY bone marrow transplantation model, male CD45.1 BM into female CD45.2 mice (FACS of blood and spleen); type: in vivo, mouse
From the text: A transplantation model utilizing male bone marrow (BM) cells from C57BL/6 mice transplanted into female mice of the same starin was used to study whether C1ORF32 ECD-Fc induces immune tolerance. In this model BM cells of the male mouse are rejected by the female recipients due to mismatch in the minor histocompatibility antigen encoded by the Y chromosome (Hya). To allow identification of the male cells in the female mice blood, male mice expressing CD45.1 isotype were selected while the female mice carry CD45.2 isotype. This model provides a tool for testing the effect of potential drugs on induction of tolerance towards the grafted cells.
In this model, C1ORF32 ECD-Fc (SEQ ID NO:42) treatment started one week before bone marrow transplantation and continued for five weeks. Female recipient mice were followed for percentage of CD45.1+ and CD45.2+ cells present within the blood.
Female C57BL/6 recipient mice (CD45.2+) were sub-lethally irradiated with 200 rads/cGy 24 hours before transplantation of either female C57Bl/6 (CD45.1+) or male C57Bl/6 (CD45.1+) 5×10^6 bone marrow cells. Recipient mice were allocated into treatment groups as detailed below (n=6 per group). Treatments were given at 300 ug/dose i.p, 3×/wk starting one week prior to transplantation and continued for 4 weeks following transplantation, giving a total of 15 treatments during this 5 weeks period.
1. Female CD45.1 into female CD45.2 2. Male CD45.1 into female CD45.2+anti-CD40L (300 ug/dose) (Clone MR-1; BioXCell, Cat#BE0017-1) 3. Male CD45.1 into female CD45.2+C1ORF ECD-Fc (SEQ ID NO:42) (300 ug/dose)2 4. Male CD45.1 into female CD45.2+Control Ig (mouse IgG2a) (300 ug/dose)
Beginning at 2 weeks following bone marrow transplantation, blood samples from the tail were collected from each mouse once a week for 4 weeks. Approximately 2-3 drops of blood were collected per mouse into 200 ul of PBS+EDTA (50 mM), samples were spun down, and RBCs lysed with ammonium chloride. The cells were washed 3× with PBS, stained with the viability dye Aqua Dead Cell Stain (Invitrogen; Cat#L34957), blocked with Fc Receptor block (anti-mouse CD16/32; eBioscience; Cat#14-0161-86), and stained with anti-mouse CD45.1 APC-Cy7 (eBiosciences; Cat#47-0453-80) and anti-mouse CD45.2 FITC (eBioscience; Cat#11-0454-82). The analysis for chimerism was determined by flow cytometric analysis (on total live cells) for the percentage of CD45.1+ versus CD45.2+ cells present in the blood of female recipient mice.
During weeks 6, 7, and 8 the blood samples were also stained to determine the percentage of CD4+ Teff cells and CD4+ Treg cells present within the blood using the cellular markers CD44, CD25, and FoxP3. Details of the Abs used in the flow panels for weeks 6, 7, and 8 are listed below.
These same populations of cells were analyzed at week 8 within the spleen. In addition, the proliferative and secreted cytokine responses of total splenocytes in ex vivo recall cultures were tested in the presence of medium alone, anti-CD3 (1 ug/ml), the HY antigen DBY peptide (NAGFNSNRANSSRSS; Genemed Synthesis; San Antonio, Tex.) (10 ug/ml), irradiated male splenocytes (1:1 ratio), or irradiated female splenocytes (1:1 ratio).

[2] = combined data from all 3 studies
[3] = week 6 post transplant, vs Control Ig

B1: C1ORF32 ECD-Fc (SEQ ID NO:42): fusion protein of human C1ORF32 ECD fused to mouse immunoglobulin Fc (human-mouse fusion protein) (protein)
chain: LQVTVPDKKKVAMLFQPTVLRCHFSTSSHQPAVVQWKFKSYCQDRMGESLGMSSTRAQSLSKRNLEWDPYLDCLDSRRTVRVVASKQGSTVTLGDFYRGREITIVHDADLQIGKLMWGDSGLYYCIITTPDDLEGKNEDSVELLVLGRTGLLADLLPSFAVEIMGSENLYFQGSGEPRGPTIKPCPPCKCPAPNLLGGPSVFIFPPKIKDVLMISLSPIVTCVVVDVSEDDPDVQISWFVNNVEVHTAQTQTHREDYNSTLRVVSALPIQHQDWMSGKEFKCKVNNKDLPAPIERTISKPKGSVRAPQVYVLPPPEEEMTKKQVTLTCMVTDFMPEDIYVEWTNNGKTELNYKNTEPVLDSDGSYFMYSKLRVEKKNWVERNSYSCSVVHEGLHNHHTTKSFSRTPGK
modifications: Fusion protein human C1ORF32-ECD fused to mouse IgG2a Fc
Question: Which results are given for B1?
Answer: mice prevented from developing full blown autoimmune diabetes (NOD mice; NOD mice, overall statement): 77%; mice that did not develop T1D (NOD mice; Study I, n=5, 100 ug/dose IP 3x/wk for 2 wks from 10 wks of age): 3 out of 5; mice that developed T1D (NOD mice; Study II, n=6): 1 out of 6; mice that developed T1D (NOD mice; Study III, n=14-15, by the age of 24 weeks): 3 out of 15; mice in which T1D was observed (NOD mice; [2]): 6 out of 26; percent of mice in which T1D was observed (NOD mice; [2]): 23%; graft rejection ([1]; 5 week dosing schedule beginning one week before transplant): effective in preventing graft rejection; male donor CD45.1+ cells present in the blood of recipient females ([1]; week 4 post transplant, maintained until week 8, 300 ug/dose i.p. 3x/wk for 5 wks): highly significant number of male CD45.1+ cells were present; effector/memory CD4+ T cells (CD45.1+/CD4+/CD44hi) within the blood [1, 3]: decrease; resting CD4+ T cells (CD45.1+/CD4+/CD44lo) in blood [1, 3]: significantly higher percentage; activated donor CD4+ T cells (CD45.1+/CD4+/CD25+/FoxP3-) in blood ([1]; week 7 post transplant, vs Control Ig): significantly lower percentage; number of donor-derived (CD45.1+) CD4+/CD25+/FoxP3+ Treg cells and Treg subpopulations in spleen ([1]; week 8): striking increase; donor (CD45.1+) Tregs (FoxP3+CD25+) in blood ([1]; week 8, vs Control Ig): significant increase; donor (CD45.1+) activated CD4+ T cells (FoxP3-CD25+) in blood ([1]; week 8, vs Control Ig): decrease; donor (CD45.1+) effector/memory CD4+ T cells (CD44hi) in blood ([1]; week 8, vs Control Ig): significant increase; number of endogenous-derived (CD45.2+) Tregs and Treg subtypes in spleen ([1]; week 8, vs Ig control group): reduced; percentage and number of CD45.1+/CD4+ T cells within the spleen ([1]; week 8 post transplant): increased
